We go through 1 substance from article PMC2956136.

The experiment deals with GST-RanQ69LGTP (UniProt P62826). As to the kind of experiment: SPR.

Turning to “importin β (from UniProt Q14974 1-876) (natural protein; other documents disagree on this pair)”, the drop in response units with 5 μM Iβ1A against the DMSO control is 70%.
